Consider 4 molecules from patent US20260191937A1, “AGENTS, COMPOSITIONS AND METHODS FOR MODULATING IMMUNITY” (The University of Queensland, priority 2022, published 2026).

The target in this test is T1, 6PGD (Mus musculus, UniProt Q9DCD0).
T1 construct: host or cells: HEK293
T1 sequence (Q9DCD0 1-483): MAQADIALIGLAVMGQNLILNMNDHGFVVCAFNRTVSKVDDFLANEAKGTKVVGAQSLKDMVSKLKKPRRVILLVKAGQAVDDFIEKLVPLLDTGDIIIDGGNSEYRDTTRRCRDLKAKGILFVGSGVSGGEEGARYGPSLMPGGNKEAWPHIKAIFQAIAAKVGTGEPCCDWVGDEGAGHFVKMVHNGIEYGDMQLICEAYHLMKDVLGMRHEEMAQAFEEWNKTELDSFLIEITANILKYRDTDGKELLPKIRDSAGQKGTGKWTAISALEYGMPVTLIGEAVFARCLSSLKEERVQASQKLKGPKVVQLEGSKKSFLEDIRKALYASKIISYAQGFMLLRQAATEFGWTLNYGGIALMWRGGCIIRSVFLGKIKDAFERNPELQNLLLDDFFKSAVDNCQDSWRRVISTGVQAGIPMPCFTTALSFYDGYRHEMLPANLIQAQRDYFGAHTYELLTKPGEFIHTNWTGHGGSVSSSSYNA
As to the kind of experiment: 6PGD enzyme activity in lysates of HEK293 cells co-transfected with 6PGD and HDAC7 constructs. The format is biochemical. To be noted: molar ratio 1:1 (6PGD:HDAC), 24 h after transfection. Here is the method: FIG. 19 is a graphical representation of HDAC7 increasing 6PGD enzyme activity in HEK293 cells. HEK293 cells were transfected with expression constructs encoding (A-B) 6PGD and/or HDAC7, (C-D) 6PGD and HDAC7 wild type (WT) or HDAC7 enzyme-dead (ED), (E-F) 6PGD and full-length (HDAC7), N-terminal HDAC7 (N-HDAC7) or C-terminal HDAC7 (C-HDAC7) at a molar ratio of 1:1 (6PGD:HDAC). After 24 h, cells were lysed and the enzymatic activity of 6PGD in lysates was measured. […] Statistical analysis was performed using repeated measure one-way ANOVA followed by Dunnett's multiple comparison (ns, not significant; * p<0.05; ** p<0.01). (B, D, F) Levels of 6PGD (Flag), HDAC7 (V5) and GAPDH expression in cell lysates were assessed via western blot.
6PGD activity can be enhanced by co-delivering HDAC7. HEK293 cells were plated in 12-well plates and incubated overnight at 37° C. The Lipofectamine 2000 (Invitrogen) transfection reagent was prepared in OptiMEM to a final concentration of 1 μg DNA per μL and incubated at room temperature for 5 min. Plasmid DNA was diluted in OptiMEM (Gibco) and then mixed with Lipofectamine 2000, after which the transfection mixture was incubated at room temperature for 30 min. Prior to transfection, cell culture media was replaced with OptiMEM, after which the transfection mixture was added into cells. Cells were then incubated at 37° C. for 6-8 h before being supplemented with fresh OptiMEM. 24 h post-transfection, culture supernatants were discarded, and cells were briefly washed with DPBS and lysed for different analyses.
Mouse HDAC7 (the unspliced isoform lacking the first 22 amino acids), an enzyme-dead (ED) mutant HDAC7 carrying an H-to-A mutation (Das Gupta et al., 2020, Cell Rep. 30:2712-2728.e2718), N-terminal HDAC7 (N-HDAC7, amino acid 23-504, comprising a PHA03247 super family motif corresponding to the herpes simplex virus-1 UL36 large tegument protein, which is known to comprise deubiquitinating activity) and C-terminal HDAC7 (C-HDAC7, amino acid 498-938) were cloned in pEF6/V5-His-TOPO vectors. Mouse 6PGD was cloned in a pCMV expression vector (MG53165-CF, Sino Biologicals). HEK293 cells were transiently transfected with expression constructs encoding 6PGD and HDAC7 at a molar ratio of 1:1. 24 h after transfection, cells were lysed and lysates were subjected to 6PGD activity assays using an in vitro assay (Abcam), as per the manufacturer's instructions. The enzymatic activity was determined by measuring absorbance at 460 nm in kinetic mode using a plate reader (Infinite M Plex, Tecan).

B1: N-terminal domain of HDAC7: N-terminal HDAC7, amino acid 23-504, SEQ ID NO:15 (protein, listed as Mus musculus)
chain: MDLRVGQRPTVEPPPEPALLTLQHPQRLHRHLFLAGLHQQQRSAEPMRLSMDPPMPELQGGQQEQELRQLLNKDKSKRSAVASSVVKQKLAEVILKKQQAALERTVHPSSPSIPYRTLEPLDTEGAARSVLSSFLPPVPSLPTEPPEHFPLRKTVSEPNLKLRYKPKKSLERRKNPLLRKESAPPSLRRRPAETLGDSSPSSSSTPASGCSSPNDSEHGPNPALGSEADGDRRTHSTLGPRGPVLGNPHAPLFLHHGLEPEAGGTLPSRLQPILLLDPSVSHAPLWTVPGLGPLPFHFAQPLLTTERLSGSGLHRPLNRTRSEPLPPSATASPLLAPLQPRQDRLKPHVQLIKPAISPPQRPAKPSEKPRLRQIPSAEDLETDGGGVGPMANDGLEHRESGRGPPEGRGSISLQQHQQVPPWEQQHLAGRLSQGSPGDSVLIPLAQVGHRPLSRTQSSPAAPVSMLSPEPTCQTQVLNSSET
With B1, the “enzymatic activity of 6PGD relative to cells transfected with 6PGD alone” value is “increased the enzymatic activity of 6PGD to similar levels to that of the WT HDAC7”.

B2: HDAC7: Mouse HDAC7 lacking the first 22 amino acids, SEQ ID NO:13, expression construct (protein, listed as Mus musculus)
chain: MDLRVGQRPTVEPPPEPALLTLQHPQRLHRHLFLAGLHQQQRSAEPMRLSMDPPMPELQGGQQEQELRQLLNKDKSKRSAVASSVVKQKLAEVILKKQQAALERTVHPSSPSIPYRTLEPLDTEGAARSVLSSFLPPVPSLPTEPPEHFPLRKTVSEPNLKLRYKPKKSLERRKNPLLRKESAPPSLRRRPAETLGDSSPSSSSTPASGCSSPNDSEHGPNPALGSEADGDRRTHSTLGPRGPVLGNPHAPLFLHHGLEPEAGGTLPSRLQPILLLDPSVSHAPLWTVPGLGPLPFHFAQPLLTTERLSGSGLHRPLNRTRSEPLPPSATASPLLAPLQPRQDRLKPHVQLIKPAISPPQRPAKPSEKPRLRQIPSAEDLETDGGGVGPMANDGLEHRESGRGPPEGRGSISLQQHQQVPPWEQQHLAGRLSQGSPGDSVLIPLAQVGHRPLSRTQSSPAAPVSMLSPEPTCQTQVLNSSETPATGLVYDSVMLKHQCSCGDNSKHPEHAGRIQSIWSRLQERGLRSQCECLRGRKASLEELQSVHSERHVLLYGTNPLSRLKLDNGKLTGLLAQRTFVMLPCGGVGVDTDTIWNELHSSNAARWAAGSVTDLAFKVASRELKNGFAVVRPPGHHADHSTAMGFCFFNSVAIACRQLQQHGKASKILIVDWDVHHGNGTQQTFYQDPSVLYISLHRHDDGNFFPGSGAVDEVGTGSGEGFNVNVAWAGGLDPPMGDPEYLAAFRIVVMPIAREFAPDLVLVSAGFDAAEGHPAPLGGYHVSAKCFGYMTQQLMNLAGGAVVLALEGGHDLTAICDASEACVAALLGNKVDPLSEESWKQKPNLSAIRSLEAVVRVHRKYWGCMQRLASCPDSWLPRVPGADAEVEAVTALASLSVGILAEDRPSERLVEEEEPMNL
With B2, the “enzymatic activity of 6PGD relative to cells transfected with 6PGD alone” value is “significantly increases 6PGD activity”. Besides, the “enzymatic activity of 6PGD relative to cells transfected with 6PGD alone” value (listed as WT HDAC7) is “significantly increased the enzymatic activity of 6PGD to a similar level”.

B3: ED HDAC7: enzyme-dead mutant HDAC7 carrying an H-to-A mutation, SEQ ID NO:14 (protein)
chain: MDLRVGQRPTVEPPPEPALLTLQHPQRLHRHLFLAGLHQQQRSAEPMRLSMDPPMPELQGGQQEQELRQLLNKDKSKRSAVASSVVKQKLAEVILKKQQAALERTVHPSSPSIPYRTLEPLDTEGAARSVLSSFLPPVPSLPTEPPEHFPLRKTVSEPNLKLRYKPKKSLERRKNPLLRKESAPPSLRRRPAETLGDSSPSSSSTPASGCSSPNDSEHGPNPALGSEADGDRRTHSTLGPRGPVLGNPHAPLFLHHGLEPEAGGTLPSRLQPILLLDPSVSHAPLWTVPGLGPLPFHFAQPLLTTERLSGSGLHRPLNRTRSEPLPPSATASPLLAPLQPRQDRLKPHVQLIKPAISPPQRPAKPSEKPRLRQIPSAEDLETDGGGVGPMANDGLEHRESGRGPPEGRGSISLQQHQQVPPWEQQHLAGRLSQGSPGDSVLIPLAQVGHRPLSRTQSSPAAPVSMLSPEPTCQTQVLNSSETPATGLVYDSVMLKHQCSCGDNSKHPEHAGRIQSIWSRLQERGLRSQCECLRGRKASLEELQSVHSERHVLLYGTNPLSRLKLDNGKLTGLLAQRTFVMLPCGGVGVDTDTIWNELHSSNAARWAAGSVTDLAFKVASRELKNGFAVVRPPGHAADHSTAMGFCFFNSVAIACRQLQQHGKASKILIVDWDVHHGNGTQQTFYQDPSVLYISLHRHDDGNFFPGSGAVDEVGTGSGEGFNVNVAWAGGLDPPMGDPEYLAAFRIVVMPIAREFAPDLVLVSAGFDAAEGHPAPLGGYHVSAKCFGYMTQQLMNLAGGAVVLALEGGHDLTAICDASEACVAALLGNKVDPLSEESWKQKPNLSAIRSLEAVVRVHRKYWGCMQRLASCPDSWLPRVPGADAEVEAVTALASLSVGILAEDRPSERLVEEEEPMNL
For the molecule B3, the “enzymatic activity of 6PGD relative to cells transfected with 6PGD alone” value is on record as “significantly increased the enzymatic activity of 6PGD to a similar level”.

B4: C-terminal deacetylase domain of HDAC7: C-terminal HDAC7, amino acid 498-938, SEQ ID NO:23 (protein, listed as Mus musculus)
chain: MVLNSSETPATGLVYDSVMLKHQCSCGDNSKHPEHAGRIQSIWSRLQERGLRSQCECLRGRKASLEELQSVHSERHVLLYGTNPLSRLKLDNGKLTGLLAQRTFVMLPCGGVGVDTDTIWNELHSSNAARWAAGSVTDLAFKVASRELKNGFAVVRPPGHHADHSTAMGFCFFNSVAIACRQLQQHGKASKILIVDWDVHHGNGTQQTFYQDPSVLYISLHRHDDGNFFPGSGAVDEVGTGSGEGFNVNVAWAGGLDPPMGDPEYLAAFRIVVMPIAREFAPDLVLVSAGFDAAEGHPAPLGGYHVSAKCFGYMTQQLMNLAGGAVVLALEGGHDLTAICDASEACVAALLGNKVDPLSEESWKQKPNLSAIRSLEAVVRVHRKYWGCMQRLASCPDSWLPRVPGADAEVEAVTALASLSVGILAEDRPSERLVEEEEPMNL
B4: the “enzymatic activity of 6PGD relative to cells transfected with 6PGD alone” value is “does not activate 6PGD”.
